# T1: Sea3 (S. cerevisiae (endogenous in yeast …, UniProt Q03897 1-1148))
# T1 construct: Sea3, S. cerevisiae, endogenous subunit of the SEAC; Sea3^SIP (Sea3^Nter) lies in the wing, Sea3^SAP (Sea3^Cter) in the core; Native protein of the purified complex; two copies in the SEAC; source: endogenous, yeast cells expressing Sea4-TAP; in lysate and co-purified with Sea4-TAP (IgG Dynabeads, TEV elution)
# T1 sequence (looked up): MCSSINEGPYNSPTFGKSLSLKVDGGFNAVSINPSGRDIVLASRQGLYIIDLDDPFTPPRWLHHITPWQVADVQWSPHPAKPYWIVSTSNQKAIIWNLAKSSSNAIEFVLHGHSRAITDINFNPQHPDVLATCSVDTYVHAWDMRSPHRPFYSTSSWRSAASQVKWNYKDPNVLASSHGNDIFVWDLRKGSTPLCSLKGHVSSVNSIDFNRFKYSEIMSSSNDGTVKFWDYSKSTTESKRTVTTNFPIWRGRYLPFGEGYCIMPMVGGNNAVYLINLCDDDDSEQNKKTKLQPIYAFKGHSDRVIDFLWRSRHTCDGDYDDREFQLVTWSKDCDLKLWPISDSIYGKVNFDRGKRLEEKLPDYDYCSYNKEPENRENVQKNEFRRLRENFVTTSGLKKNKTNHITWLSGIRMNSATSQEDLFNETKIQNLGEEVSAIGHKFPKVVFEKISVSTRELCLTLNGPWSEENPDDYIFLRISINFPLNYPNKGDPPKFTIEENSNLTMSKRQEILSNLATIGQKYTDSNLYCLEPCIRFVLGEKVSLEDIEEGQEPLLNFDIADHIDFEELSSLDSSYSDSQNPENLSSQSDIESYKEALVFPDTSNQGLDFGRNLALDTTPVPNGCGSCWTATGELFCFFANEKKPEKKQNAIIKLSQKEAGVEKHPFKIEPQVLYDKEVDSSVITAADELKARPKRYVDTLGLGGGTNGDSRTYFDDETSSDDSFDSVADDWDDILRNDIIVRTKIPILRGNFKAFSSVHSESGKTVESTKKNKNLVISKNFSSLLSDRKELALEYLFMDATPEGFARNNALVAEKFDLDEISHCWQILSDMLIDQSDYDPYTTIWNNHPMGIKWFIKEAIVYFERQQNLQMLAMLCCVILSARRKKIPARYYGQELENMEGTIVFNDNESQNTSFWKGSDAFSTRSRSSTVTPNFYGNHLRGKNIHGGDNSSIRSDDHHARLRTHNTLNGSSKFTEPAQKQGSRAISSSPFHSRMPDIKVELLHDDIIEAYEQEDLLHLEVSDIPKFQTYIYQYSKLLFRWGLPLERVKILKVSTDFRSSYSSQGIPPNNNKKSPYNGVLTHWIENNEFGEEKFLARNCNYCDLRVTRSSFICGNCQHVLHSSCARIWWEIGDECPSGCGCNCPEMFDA
# T2: Sea4-TAP (S. cerevisiae (endogenous in yeast …, UniProt P38164 1-1038))
# T2 construct: Sea4, S. cerevisiae, endogenous subunit of the SEAC (SEACAT, core), TAP-tagged; Captured by the TAP tag on IgG beads; the complex was released with TEV protease before SDS-PAGE and cryo-EM; Written 'Sea4-TAP'; Four copies in the SEAC; source: endogenous, yeast cells expressing Sea4-TAP; in lysate, purified on IgG-coupled Dynabeads and eluted with TEV protease
# T2 sequence (looked up): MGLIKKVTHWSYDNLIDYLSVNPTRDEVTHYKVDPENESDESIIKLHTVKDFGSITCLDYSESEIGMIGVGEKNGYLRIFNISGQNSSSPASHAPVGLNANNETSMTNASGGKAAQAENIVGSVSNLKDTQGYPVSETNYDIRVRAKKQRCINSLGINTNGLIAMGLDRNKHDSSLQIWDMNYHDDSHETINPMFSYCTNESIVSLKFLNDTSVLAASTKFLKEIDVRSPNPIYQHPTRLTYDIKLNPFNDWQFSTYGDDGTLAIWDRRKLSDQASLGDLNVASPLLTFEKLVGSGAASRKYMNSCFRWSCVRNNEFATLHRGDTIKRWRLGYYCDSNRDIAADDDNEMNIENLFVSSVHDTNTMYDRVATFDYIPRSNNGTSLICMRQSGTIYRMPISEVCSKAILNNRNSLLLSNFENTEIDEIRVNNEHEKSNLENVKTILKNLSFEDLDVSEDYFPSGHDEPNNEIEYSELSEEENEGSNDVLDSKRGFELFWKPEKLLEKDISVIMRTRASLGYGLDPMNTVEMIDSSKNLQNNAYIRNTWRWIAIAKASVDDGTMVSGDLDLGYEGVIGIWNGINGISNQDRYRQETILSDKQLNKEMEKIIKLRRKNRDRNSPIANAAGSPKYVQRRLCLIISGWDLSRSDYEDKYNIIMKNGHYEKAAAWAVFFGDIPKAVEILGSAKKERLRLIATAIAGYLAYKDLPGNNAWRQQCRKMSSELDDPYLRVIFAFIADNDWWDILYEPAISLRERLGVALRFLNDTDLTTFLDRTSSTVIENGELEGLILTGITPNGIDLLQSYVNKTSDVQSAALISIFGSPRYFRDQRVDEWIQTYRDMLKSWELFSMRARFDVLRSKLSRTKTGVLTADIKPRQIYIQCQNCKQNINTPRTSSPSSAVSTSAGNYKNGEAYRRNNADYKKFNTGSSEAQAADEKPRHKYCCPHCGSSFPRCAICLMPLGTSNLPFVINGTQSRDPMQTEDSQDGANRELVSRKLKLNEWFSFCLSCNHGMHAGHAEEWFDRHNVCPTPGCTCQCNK
# Key:
# Sea3 = target: T1, Sea3; experiment: cryo-EM structure; endogenous SEAC purified from yeast via Sea4-TAP (IgG Dynabeads, TEV elution in 20 mM HEPES-NaOH pH 7.4, 300 mM NaCl, 2 mM DTT), on graphene-oxide-coated grids; conditions: both partners purified
# Sea4-TAP = target: T2, Sea4-TAP; experiment: as above; conditions: both partners purified
binder,measurement,setting,value
"Seh1 (natural protein, UniProt P53011 1-349, looked up, Seh1, S. cerevisiae, endogenous subunit of the SEAC (SEACAT, core); Native protein of the purified complex; six copies in the SEAC; source: endogenous, yeast cells expressing Sea4-TAP; in lysate and co-purified with Sea4-TAP (IgG Dynabeads, TEV elution)) MQPFDSGHDDLVHDVVYDFYGRHVATCSSDQHIKVFKLDKDTSNWELSDSWRAHDSSIVAIDWASPEYGRIIASASYDKTVKLWEEDPDQEECSGRRWNKLCTLNDSKGSLYSVKFAPAHLGLKLACLGNDGILRLYDALEPSDLRSWTLTSEMKVLSIPPANHLQSDFCLSWCPSRFSPEKLAVSALEQAIIYQRGKDGKLHVAAKLPGHKSLIRSISWAPSIGRWYQLIATGCKDGRIRIFKITEKLSPLASEESLTNSNMFDNSADVDMDAQGRSDSNTEEKAELQSNLQVELLSEHDDHNGEVWSVSWNLTGTILSSAGDDGKVRLWKATYSNEFKCMSVITAQQ",binding result,Sea3,binds
same,binding result,Sea4-TAP,binds
